According to US20200291112A1 (Memorial Sloan Kettering, published 2020):

T1: Human GPA33 (Novoprotein), recombinant protein immobilized on CM5 chips (human, UniProt Q99795 22-235)
T1 construct: also called GPA33 recombinant protein; Human Glycoprotein A33
T1 sequence: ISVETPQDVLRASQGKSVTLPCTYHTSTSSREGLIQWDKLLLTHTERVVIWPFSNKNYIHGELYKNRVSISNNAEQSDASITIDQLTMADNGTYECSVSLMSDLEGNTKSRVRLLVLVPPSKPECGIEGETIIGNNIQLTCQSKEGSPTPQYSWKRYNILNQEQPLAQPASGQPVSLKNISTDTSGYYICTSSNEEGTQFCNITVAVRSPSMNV

T2: GPA33 on the surface of human colon and gastric cancer cell lines (human, UniProt Q99795 22-319)
T2 construct: whole, on cells; Endogenous antigen on tumor cell lines stained in FACS and used as targets in TDCC assays; also called target antigens on colon cancer cells
T2 sequence (looked up): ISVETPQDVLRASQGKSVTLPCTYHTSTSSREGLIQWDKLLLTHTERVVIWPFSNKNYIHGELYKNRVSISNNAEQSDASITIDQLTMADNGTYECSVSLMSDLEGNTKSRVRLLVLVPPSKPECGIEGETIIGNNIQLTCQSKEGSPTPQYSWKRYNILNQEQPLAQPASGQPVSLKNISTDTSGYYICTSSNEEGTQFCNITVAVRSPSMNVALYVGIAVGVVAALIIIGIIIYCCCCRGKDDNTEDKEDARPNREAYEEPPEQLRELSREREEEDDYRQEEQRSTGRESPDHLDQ


Experiments:
[1] = molecular target: T1, Human GPA33 (Novoprotein), recombinant …; experiment: SPR (Biacore T100), human GPA33 immobilized on CM5 chip, huA33-BsAb flowed over, 25 °C, 1:1 binding model [contd.) C]
Experimental: (§1) SPR analysis. Human GPA33 (Novoprotein, Summit, N.J.) was immobilized on CM5 chips. Five concentrations of 2-fold serially diluted huA33 IgG1 or huA33-BsAbs (starting at 20 nM) were flowed over the chip using a Biacore™ T100 system (GE Healthcare, Chicago, Ill.). Binding kinetics of huA33 were measured at 25° C. and binding kinetics of huA33-BsAbs were measured at both 25° C. and 37° C. The sensorgrams were fitted with 1:1 binding model for both to derive kinetic parameters.

[2] = molecular target: T1, Human GPA33 (Novoprotein), recombinant …; experiment: SPR, parental huA33-BsAb, the reference of the column
[3] = molecular target: T1, Human GPA33 (Novoprotein), recombinant …; experiment: SPR (Biacore T100), human GPA33 immobilized on CM5 chip, huA33-BsAb flowed over, 37 °C, 1:1 binding model [contd.) C]
Experimental: as §1

[4] = molecular target: T2, GPA33 on the surface of human colon and …; experiment: FACS staining of SW1222 colon cancer cells with titrated huA33-BsAb, geometric mean MFI [contd.) D]
[5] = molecular target: T1, Human GPA33 (Novoprotein), recombinant …; experiment: SPR, GPA33 immobilized on CM5 chip, parental huA33-BsAb; temperature not given for this table; the KD column head prints no unit
Experimental: as §1

[6] = molecular target: T1, Human GPA33 (Novoprotein), recombinant …; experiment: SPR (Biacore T100), human GPA33 immobilized on CM5 chip, huA33-BsAb flowed over, 25 °C, 1:1 binding model; the KD column head prints no unit, M follows from the ka and kd units [contd.) C]
Experimental: as §1

[7] = molecular target: T1, Human GPA33 (Novoprotein), recombinant …; experiment: SPR (Biacore T100), GPA33 immobilized on CM5 chip, antibody flowed, 1:1 model; measured at 25 C and 37 C; bispecific huA33-BsAb; GPA33 immobilized on CM5 chip; apparent affinity (avidity)
Experimental: as §1

[8] = molecular target: T2, GPA33 on the surface of human colon and …; experiment: cell-based or functional assay
[9] = molecular target: T1, Human GPA33 (Novoprotein), recombinant …; experiment: SPR (Biacore T100), human GPA33 immobilized on CM5 chip, huA33-BsAb flowed over, 37 °C, 1:1 binding model; the KD column head prints no unit, M follows from the ka and kd units [contd.) C]
Experimental: as §1

[10] = molecular target: T1, Human GPA33 (Novoprotein), recombinant …; experiment: SPR (Biacore T100), GPA33 immobilized on CM5 chip, antibody flowed, 1:1 model; parental huA33 IgG, not the bispecific
Experimental: as §1

[11] = molecular target: T1, Human GPA33 (Novoprotein), recombinant …; experiment: SPR (Biacore T100), GPA33 recombinant protein immobilized on CM5 chip, antibody flowed over
[12] = molecular target: T1, Human GPA33 (Novoprotein), recombinant …; experiment: SPR (Biacore T100), GPA33 recombinant protein immobilized on CM5 chip, IgG1 flowed over, 25 °C, 1:1 binding model
Experimental: as §1

Row | Binder | koff [1] | kon [1] | Fold difference/Parental [2] | koff [3] | kon [3] | EC50 (read off the curve) [4] | Kd [5] | Kd [6] | Kd [7] | EC50 of T-cell dependent cytotoxicity against Colo205 cells (sorted fresh CD4 memory T cells, E:T=5:1, 48 hours, LDH assay) [8] | Kd [9] | Kd [10] | Kd [11] | koff [11] | kon [11] | Kd [12] | koff [12] | kon [12]
1 | huA33-BsAb (bispecific antibody, human IgG1, kappa, N297A, huA33 (H2L2) IgG1 with the humanized OKT3 scFv fused to the C-terminus of the light chain via a (G4S)3 linker; also called T-cell engaging huA33-BsAb; humanized A33-bispecific antibody) heavy: not shown light: DIQMTQSQSSLSTSVGDRVTITCKASQNVRTVVAWYQQKPGKSPKTLIYLASNRHTGVPSRFSGSGSGTEFTLTISNVQPEDFADYFCLQHWSYPLTFGSGTKLEIKRTVAAPSVFIFPPSDEQLKSGTASVVCLLNNFYPREAKVQWKVDNALQSGNSQESVTEQDSKDSTYSLSSTLTLSKADYEKHKVYACEVTHQGLSSPVTKSFNRGECTSGGGGSGGGGSGGGGSQVQLVQSGGGVVQPGRSLRLSCKASGYTFTRYTMHWVRQAPGKCLEWIGYINPSRGYTNYNQKFKDRFTISRDNSKNTAFLQMDSLRPEDTGVYFCARYYDDHYSLDYWGQGTPVTVSSGGGGSGGGGSGGGGSGGGGSGGGGSGGGGSDIQMTQSPSSLSASVGDRVTITCSASSSVSYMNWYQQTPGKAPKRWIYDTSKLASGVPSRFSGSGSGTDYTFTISSLQPEDIATYYCQQWSSNPFTFGCGTKLQITR | 0.000478 s⁻¹ | 2.25e+06 M⁻¹ s⁻¹ | 1 fold | 0.00167 s⁻¹ | 6.81e+06 M⁻¹ s⁻¹ | ~0.3 µg | 0.168 nM | 0.212 nM | ~0.2 nM | 0.025 nM | 0.245 nM |  |  |  |  |  |  | 
2 | huA33-IgG1 (H2L2) (antibody, V domains shown, Humanized A33 IgG1, version H2L2; also called 3A3-H2L2; 3A3-H2/L2) VH: EVQLVESGGGLVKPGGSLRLSCAASGFAFSTYDMSWVRQAPGKRLEWVATISSGGSYTYYLDSVKGRFTISRDNAKNSLYLQMNSLRAEDTAVYYCAPTTVVPFAYWGQGTLVTVSS VL: DIQMTQSQSSLSTSVGDRVTITCKASQNVRTVVAWYQQKPGKSPKTLIYLASNRHTGVPSRFSGSGSGTEFTLTISNVQPEDFADYFCLQHWSYPLTFGSGTKLEIKR |  |  |  |  |  |  |  |  |  |  |  | 0.13 nM | 0.169 nM | 0.000363 s⁻¹ | 2.15e+06 M⁻¹ s⁻¹ | 0.169 nM | 0.000363 s⁻¹ | 2.15e+06 M⁻¹ s⁻¹
